Laboratory results: PMC5432616, “Oligomeric State and Thermal Stability of Apo- and Holo- Human Ornithine δ-Aminotransferase” (The Protein Journal, 2017)

How the values were obtained:
purified protein [1] = substrate: NCCC[C@H](N)C(=O)O; assay: purified protein; conditions: co-substrate α-KG, 60 nM enzyme, 50 mM Hepes, pH 8.0, 150 mM NaCl, 100 μM PLP, 25 °C
purified protein [2] = substrate: O=C(O)CCC(=O)C(=O)O; assay: purified protein; format: biochemical, Homo sapiens; conditions: co-substrate L-Orn, 60 nM enzyme, 50 mM Hepes, pH 8.0, 150 mM NaCl, 100 μM PLP, 25 °C

B1: hOAT (human ornithine δ-aminotransferase) (Homo sapiens; R217A) (protein)
chain: TSVATKKTVQGPPTSDDIFEREYKYGAHNYHPLPVALERGKGIYLWDVEGRKYFDFLSSYSAVNQGHCHPKIVNALKSQVDKLTLTSRAFYNNVLGEYEEYITKLFNYHKVLPMNTGVEAGETACKLARKWGYTVKGIQKYKAKIVFAAGNFWGRTLSAISSSTDPTSYDGFGPFMPGFDIIPYNDLPALEAALQDPNVAAFMVEPIQGEAGVVVPDPGYLMGVRELCTRHQVLFIADEIQTGLARTGRWLAVDYENVRPDIVLLGKALSGGLYPVSAVLCDDDIMLTIKPGEHGSTYGGNPLGCRVAIAALEVLEEENLAENADKLGIILRNELMKLPSDVVTAVRGKGLLNAIVIKETKDWDAWKVCLRLRDNGLLAKPTHGDIIRFAPPLVIKEDELRESIEIINKTILSF
notes: untagged, pET43a, E. coli BL21(DE3)pLysS; DEAE and Superdex 200; tetramer in equilibrium with dimer, dimer is the functional unit
Km (purified protein [1]): 5.1 ± 0.3 mM | kcat (purified protein [1]): 38.4 ± 0.7 s⁻¹ | Km (purified protein [2]): 2.4 ± 0.1 mM | kcat (purified protein [2]): 38.1 ± 0.3 s⁻¹
